Drawing on paper PMC10040874, this text covers Kd for two variants.

B1: Drosophila melanogaster PRL (wild-type) [D. melanogaster] / Drosophila melanogaster CNNM CBS-pair domain, GST-tagged [D. melanogaster] (parent)
chain 1: MSITMRQKDLRPAPALIEYKGMKFLITDRPSDITINHYIMELKKNNVNTVVRVCEPSYNTDELETQGITVKDLAFEDGTFPPQQVVDEWFEVLKDKYQQNPEACVAVHCVAGLGRAPVLVALALIELGLKYEAAVEMIRDKRRGAINAKQLSFLEKYKPKARLKHKNGHKNSCSVQ
chain 2: VNIISGALELRKKTVADVMTHINDAFMLSLDALLDFETVSEIMNSGYSRIPVYDGDRKNIVTLLYIKDLAFVDTDDNTPLKTLCEFYQNPVHFVFEDYTLDIMFNQFKEGTIGHIAFVHRVNNEGDGDPFYETVGLVTLEDVIEELIQAEIVDE

The variants in the assay derive from B1. In words: ITC. The conditions noted are these: with Drosophila melanogaster CNNM CBS-pair domain, 16 µM CNNM titrated with 160 µM PRL.
Regarding chain 1 C109D, the Kd came to 0.6 µM. In the case of chain 1 R143E it was 7.5 µM.
